For the data set, the target named is T1, EcoCascade-crRNA(EMX1) (Escherichia coli, UniProt Q46901;P76632;Q46899;Q46898;Q46897 1-502;1-160;2-363;1-224;2-199).
T1 sequence 1: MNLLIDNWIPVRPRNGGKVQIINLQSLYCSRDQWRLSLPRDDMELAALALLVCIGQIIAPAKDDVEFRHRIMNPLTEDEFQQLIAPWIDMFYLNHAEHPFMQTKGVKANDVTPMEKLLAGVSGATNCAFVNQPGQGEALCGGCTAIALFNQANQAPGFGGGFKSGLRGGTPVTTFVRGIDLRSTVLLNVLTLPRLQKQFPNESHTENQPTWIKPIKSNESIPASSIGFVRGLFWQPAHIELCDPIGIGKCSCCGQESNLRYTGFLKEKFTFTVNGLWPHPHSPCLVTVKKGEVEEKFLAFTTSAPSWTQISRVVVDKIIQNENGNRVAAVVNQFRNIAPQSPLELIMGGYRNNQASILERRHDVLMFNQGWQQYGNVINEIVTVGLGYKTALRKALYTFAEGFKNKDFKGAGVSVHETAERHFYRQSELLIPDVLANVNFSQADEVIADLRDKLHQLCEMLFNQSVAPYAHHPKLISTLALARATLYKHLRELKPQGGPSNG
T1 sequence 2: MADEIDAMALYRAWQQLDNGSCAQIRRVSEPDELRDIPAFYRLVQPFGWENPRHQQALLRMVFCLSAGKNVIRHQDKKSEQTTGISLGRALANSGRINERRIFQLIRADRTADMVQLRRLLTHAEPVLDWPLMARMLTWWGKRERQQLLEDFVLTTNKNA
T1 sequence 3: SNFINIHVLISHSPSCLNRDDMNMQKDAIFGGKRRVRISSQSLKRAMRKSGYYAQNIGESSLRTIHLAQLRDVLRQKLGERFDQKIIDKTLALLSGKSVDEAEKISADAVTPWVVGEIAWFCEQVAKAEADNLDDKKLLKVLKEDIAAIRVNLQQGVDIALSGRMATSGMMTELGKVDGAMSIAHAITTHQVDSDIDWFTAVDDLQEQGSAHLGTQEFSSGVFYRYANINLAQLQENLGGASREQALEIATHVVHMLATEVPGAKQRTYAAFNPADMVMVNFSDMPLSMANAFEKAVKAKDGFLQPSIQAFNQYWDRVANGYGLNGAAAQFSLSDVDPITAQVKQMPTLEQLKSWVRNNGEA
T1 sequence 4: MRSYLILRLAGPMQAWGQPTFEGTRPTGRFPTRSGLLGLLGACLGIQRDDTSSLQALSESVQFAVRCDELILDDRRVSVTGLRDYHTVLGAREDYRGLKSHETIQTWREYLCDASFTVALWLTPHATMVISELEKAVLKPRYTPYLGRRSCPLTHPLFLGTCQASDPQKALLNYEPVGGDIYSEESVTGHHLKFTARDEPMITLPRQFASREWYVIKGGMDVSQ
T1 sequence 5: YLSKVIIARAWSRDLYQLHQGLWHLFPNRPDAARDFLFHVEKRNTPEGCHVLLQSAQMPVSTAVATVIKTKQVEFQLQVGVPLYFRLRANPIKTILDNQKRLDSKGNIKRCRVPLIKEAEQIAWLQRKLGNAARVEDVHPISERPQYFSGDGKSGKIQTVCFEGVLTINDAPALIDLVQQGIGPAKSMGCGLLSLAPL
In words: BLI; BLI: PBS, 0.01% Tween 20, 0.02% BSA, 20 uM EcoCascade analyte, biotinylated DNA on streptavidin; temperature not stated; EMSA conditions not in material. The following applies: protein: recombinant; tags: hexahistidine tag on Cas11, removed with HRV3C; copies: 1;2;6;1;1; label: Biotin-TEG; blunt.

B1: EMX1-AAG-12-bio (n12) (dsDNA)
DNA 1: TGGCGCATTGCCACGAAGCAGGCCAATGGGTCTTCACGATCGTGACAAGACAATGACTAG
DNA 2: CTAGTCATTGTCTTGTCACGATCGTGAAGACCCATTGGCCTGCTTCGTGGCAATGCGCCA
With B1, the binding result was “no binding”.

B2: EMX1-AAG-0-bio (n0) (dsDNA)
DNA 1: TGGCGCATTGCCACGAAGACTTAACCGTTTTCTTCACGATCGTGACAAGACAATGACTAG
DNA 2: CTAGTCATTGTCTTGTCACGATCGTGAAGAAAACGGTTAAGTCTTCGTGGCAATGCGCCA
In the case of B2, the binding result is “no binding”.

B3: EMX1-AAG-6-bio (n6) (dsDNA)
DNA 1: TGGCGCATTGCCACGAAGCAGGCCCCGTTTTCTTCACGATCGTGACAAGACAATGACTAG
DNA 2: CTAGTCATTGTCTTGTCACGATCGTGAAGAAAACGGGGCCTGCTTCGTGGCAATGCGCCA
For B3, the binding result is “no binding”.

B4: EMX1-AAG-32-bio (n32, paired PAM) (dsDNA)
DNA 1: TGGCGCATTGCCACGAAGCAGGCCAATGGGGAGGACATCGATGTCACCTCCAATGACTAG
DNA 2: CTAGTCATTGGAGGTGACATCGATGTCCTCCCCATTGGCCTGCTTCGTGGCAATGCGCCA
As to B4, the binding result is listed as “binds”.

Source of the values: publication PMC9427990, “Dynamic mechanisms of CRISPR interference by Escherichia coli CRISPR-Cas3”.
